Measured values as given in paper PMC6056074.

Target: HLA-B*44:05 (human)
Test: flow cytometry on cells; peptide receptivity of surface HLA-B on TAP-sufficient CEM cells: 100 μM peptide in medium at 26°C for 2h, then 20 μg/ml brefeldin A at 37°C for 2h; W6/32 staining, signal of cells without exogenous HLA-B subtracted; read-out (MFI with peptide - MFI without peptide)/MFI with peptide*100

EEFGRAFSF [… (EF10), B*44:05-restricted epitope] was tested, and the percent of cell surface HLA-B that is peptide receptive was 5%.
